Drawing on the Human Domainome abundance scans (Beltran et al. 2025), this text covers abundance fitness for 167 variants.

First the molecules themselves.
B1: Protein C-ets-1, residues 55 to 135; numbered along this chain, P14921 (parent)
chain: GFTKEQQRLGIPKDPRQWTETHVRDWVMWAVNEFSLKGVDFQKFCMNGAALCALGKDCFLELAPDFVGDILWEHLEILQKE

± gives the uncertainty stated by the source.

In this series the parent is B1. Put plainly: abundance fitness (aPCA) (normalised: wild type 0, dead -1); higher = more abundant; growth selection in yeast, the domain comes from the species named. The settings on record: Homo sapiens.
Turning to W26L, the abundance fitness was -0.966 ± 0.052.

Turning to W26A, the abundance fitness was -0.845 ± 0.041.

N32C: the abundance fitness was -0.132 ± 0.044.

N32D: the abundance fitness was found to be 0.046 ± 0.051.

For the variant N32T, the abundance fitness was -0.042 ± 0.051.

With N32G, the abundance fitness is -0.018 ± 0.023.

Take E5Y: the abundance fitness is -0.045 ± 0.1.

Take F59S: the abundance fitness was -0.918 ± 0.063.

Consider T19I, for which the abundance fitness is -0.705 ± 0.13.

Consider T19R, for which the abundance fitness was -0.205 ± 0.03.

With T19C, the abundance fitness is -0.221 ± 0.078.

Regarding T19E, the abundance fitness is -0.155 ± 0.064.

Take A49K: the abundance fitness stood at 0.085 ± 0.05.

Take C52R: the abundance fitness was -0.564 ± 0.034.

Take C52P: the abundance fitness was -0.896 ± 0.073.

Turning to C52V, the abundance fitness is -0.066 ± 0.027.

L36P: the abundance fitness was -0.725 ± 0.084.

With W29V, the abundance fitness is -0.767 ± 0.044.

Take W29R: the abundance fitness was -0.489 ± 0.031.

Regarding G10S, the abundance fitness is -0.062 ± 0.034.

On to G10N, for which the abundance fitness was -0.135 ± 0.081.

As for G10D, the abundance fitness came to 0.015 ± 0.058.

Consider L75W, for which the abundance fitness is -0.097 ± 0.046.

Regarding L75E, the abundance fitness was -0.952 ± 0.14.

Turning to D40W, the abundance fitness is -0.77 ± 0.088.

For the variant D40H, the abundance fitness was -0.225 ± 0.059.

Regarding D40N, the abundance fitness was -0.146 ± 0.067.

On to W72Q, for which the abundance fitness is -0.804 ± 0.11.

As for W72N, the abundance fitness was -0.746 ± 0.2.

Consider W72R, for which the abundance fitness was -0.577 ± 0.038.

For W72T, the abundance fitness is -1 ± 0.19.

For the variant L78E, the abundance fitness was -0.5 ± 0.066.

In the case of L78D, the abundance fitness is -0.486 ± 0.097.

In the case of A63I, the abundance fitness is -0.038 ± 0.12.

F41V: the abundance fitness came to 0.044 ± 0.028.

Regarding F41D, the abundance fitness was -0.053 ± 0.037.

Regarding T21S, the abundance fitness is -0.016 ± 0.032.

E73L: the abundance fitness is -0.246 ± 0.035.

E73R: the abundance fitness is -0.088 ± 0.031.

For the variant E73H, the abundance fitness was -0.315 ± 0.12.

With L54D, the abundance fitness was -0.791 ± 0.092.

Regarding L54E, the abundance fitness is -0.614 ± 0.051.

With L54K, the abundance fitness was -0.102 ± 0.05.

For L60D, the abundance fitness is -0.23 ± 0.06.

Consider L60K, for which the abundance fitness is 0.043 ± 0.077.

For the variant L60R, the abundance fitness is -0.042 ± 0.033.

For P15C, the abundance fitness was -0.254 ± 0.075.

As to P15Y, the abundance fitness is -1.07 ± 0.38.

As for P15S, the abundance fitness is -1.02 ± 0.12.

Regarding A50W, the abundance fitness is -0.548 ± 0.056.

For A50K, the abundance fitness turned out to be 0.042 ± 0.075.

Take A50L: the abundance fitness was -0.202 ± 0.034.

Turning to A50M, the abundance fitness is -0.007 ± 0.067.

For the variant K37S, the abundance fitness is -0.033 ± 0.032.

Take K37M: the abundance fitness was -0.146 ± 0.044.

Consider I77Y, for which the abundance fitness was -0.043 ± 0.073.

As to I77E, the abundance fitness is -0.031 ± 0.067.

In the case of S35L, the abundance fitness is -0.364 ± 0.034.

Turning to S35N, the abundance fitness is -0.178 ± 0.2.

On to S35R, for which the abundance fitness is -0.029 ± 0.029.

For Q42W, the abundance fitness is -0.681 ± 0.064.

Take Q42S: the abundance fitness was -0.007 ± 0.036.

Q42F: the abundance fitness is -0.664 ± 0.11.

As to E61R, the abundance fitness was -0.033 ± 0.041.

L9K: the abundance fitness is -0.139 ± 0.082.

Turning to L9V, the abundance fitness was -0.126 ± 0.036.

On to L9G, for which the abundance fitness is -0.195 ± 0.028.

Regarding K43V, the abundance fitness was -0.425 ± 0.045.

With K43Y, the abundance fitness is -0.351 ± 0.078.

For K43M, the abundance fitness was -0.315 ± 0.083.

Turning to M28V, the abundance fitness is 0.009 ± 0.032.

As for M28T, the abundance fitness amounted to 0.07 ± 0.045.

As for V67F, the abundance fitness was -0.267 ± 0.16.

For K4P, the abundance fitness was -0.325 ± 0.068.

K4M: the abundance fitness was -0.043 ± 0.053.

As to V23M, the abundance fitness is -0.916 ± 0.13.

For the variant V23P, the abundance fitness is -0.985 ± 0.12.

Take V23C: the abundance fitness is -0.559 ± 0.08.

Regarding A30E, the abundance fitness is -0.032 ± 0.044.

For A30R, the abundance fitness is -0.643 ± 0.045.

A30F: the abundance fitness is -0.187 ± 0.086.

With A30K, the abundance fitness is -0.366 ± 0.07.

Take A30N: the abundance fitness is -0.108 ± 0.092.

Take N47T: the abundance fitness was found to be 0.065 ± 0.061.

As to N47W, the abundance fitness was -1.01 ± 0.1.

As for N47M, the abundance fitness was -0.881 ± 0.1.

Take N47L: the abundance fitness is -0.879 ± 0.07.

With Q7L, the abundance fitness is -0.02 ± 0.034.

As for Q7W, the abundance fitness is -0.133 ± 0.048.

In the case of Q7G, the abundance fitness is -0.047 ± 0.029.

For the variant Q7E, the abundance fitness was determined as 0.089 ± 0.052.

Q7F: the abundance fitness was -0.121 ± 0.084.

Regarding Q7I, the abundance fitness was 0.062 ± 0.086.

Turning to V31L, the abundance fitness was -0.326 ± 0.029.

For the variant V31C, the abundance fitness was -0.013 ± 0.045.

As for V31H, the abundance fitness was -0.495 ± 0.071.

For V31G, the abundance fitness is -0.427 ± 0.03.

Turning to A53Q, the abundance fitness is -0.097 ± 0.046.

Turning to A53T, the abundance fitness is -0.039 ± 0.037.

On to A53K, for which the abundance fitness was -0.021 ± 0.048.

Regarding A53D, the abundance fitness came to 0.067 ± 0.048.

Consider G48E, for which the abundance fitness was -0.806 ± 0.17.

As to G48S, the abundance fitness was -0.911 ± 0.066.

In the case of G48V, the abundance fitness is -0.805 ± 0.073.

For G48Q, the abundance fitness was -0.931 ± 0.14.

For G48A, the abundance fitness was -0.972 ± 0.093.

Consider E76R, for which the abundance fitness is -0.072 ± 0.035.

As to E76P, the abundance fitness is -0.205 ± 0.058.

Take P64E: the abundance fitness is -0.239 ± 0.057.

With P64L, the abundance fitness is -0.861 ± 0.082.

Turning to P64T, the abundance fitness is -0.194 ± 0.059.

With I11G, the abundance fitness is -0.583 ± 0.043.

As to I11C, the abundance fitness is -0.108 ± 0.1.

For D65M, the abundance fitness was -0.019 ± 0.075.

For D65K, the abundance fitness is -0.01 ± 0.065.

On to D65F, for which the abundance fitness is -0.221 ± 0.08.

In the case of E33M, the abundance fitness was -0.316 ± 0.055.

Turning to E33W, the abundance fitness was -0.179 ± 0.038.

Consider E33R, for which the abundance fitness was -0.042 ± 0.033.

On to E33N, for which the abundance fitness is -0.078 ± 0.076.

Turning to E33F, the abundance fitness is -0.134 ± 0.074.

Turning to F2H, the abundance fitness was -0.43 ± 0.16.

Regarding F2K, the abundance fitness was -0.232 ± 0.14.

For F34S, the abundance fitness was -0.52 ± 0.033.

F34A: the abundance fitness was -0.493 ± 0.032.

As to H22R, the abundance fitness was -0.818 ± 0.061.

For the variant H22P, the abundance fitness is -0.85 ± 0.11.

Regarding Q17C, the abundance fitness is -0.034 ± 0.07.

On to Q17L, for which the abundance fitness was -0.088 ± 0.045.

As to Q17E, the abundance fitness is 0.046 ± 0.053.

With Q17R, the abundance fitness was -0.058 ± 0.036.

Regarding D69Y, the abundance fitness was -0.038 ± 0.089.

As for D69P, the abundance fitness stood at 0.015 ± 0.049.

Consider D69N, for which the abundance fitness is -0.002 ± 0.064.

Turning to V39S, the abundance fitness was -0.624 ± 0.052.

For the variant V39C, the abundance fitness was -0.194 ± 0.06.

Turning to V39N, the abundance fitness is -0.755 ± 0.22.

For V39G, the abundance fitness was -0.714 ± 0.046.

Turning to W18D, the abundance fitness is -0.962 ± 0.24.

In the case of W18Q, the abundance fitness was -0.899 ± 0.23.

H74Q: the abundance fitness is -0.02 ± 0.048.

Take H74R: the abundance fitness was -0.222 ± 0.026.

Consider H74F, for which the abundance fitness is -0.4 ± 0.093.

On to H74T, for which the abundance fitness is -0.265 ± 0.053.

Regarding T3L, the abundance fitness was -0.055 ± 0.041.

In the case of F44V, the abundance fitness is -0.539 ± 0.042.

With F44W, the abundance fitness was -0.138 ± 0.05.

As to K13L, the abundance fitness was -0.065 ± 0.043.

Regarding K13W, the abundance fitness is -0.117 ± 0.05.

Regarding K13D, the abundance fitness was -0.054 ± 0.09.

With K13I, the abundance fitness is -0.022 ± 0.088.

As for K13M, the abundance fitness was -0.086 ± 0.11.

On to R8E, for which the abundance fitness was -0.074 ± 0.048.

Turning to R8P, the abundance fitness was -0.132 ± 0.047.

For R8C, the abundance fitness is -0.154 ± 0.052.

Regarding R8M, the abundance fitness is -0.138 ± 0.059.

Regarding G55N, the abundance fitness stood at 0.03 ± 0.085.

For G55L, the abundance fitness is -0.791 ± 0.054.

With G55V, the abundance fitness is -0.448 ± 0.036.

As to G55C, the abundance fitness amounted to 0.019 ± 0.057.

Turning to L51G, the abundance fitness is -1.03 ± 0.063.

As for L51A, the abundance fitness was -0.847 ± 0.055.

As for L51R, the abundance fitness is -0.788 ± 0.051.

Turning to L51T, the abundance fitness is -0.961 ± 0.11.

Regarding L51C, the abundance fitness was -0.803 ± 0.12.

L51M: the abundance fitness was -0.11 ± 0.05.

Turning to L51E, the abundance fitness is -0.952 ± 0.093.
